Data published in patent US5567302A, “Electrochemical system for rapid detection of biochemical agents that catalyze a redox potential change” (priority 1995, dated 1996).

Tested on: OC[C@H]1O[C@@H](Oc2c[nH]c3ccc(Br)c(Cl)c23)[C@H](O)[C@@H](O)[C@H]1O
Experiment: purified protein, by the assay type
Details: other: β-D-galactosidase substrate; stated when explaining why the standard curve levels off at high enzyme amounts

biotinylated β-D-galactosidase (Escherichia coli K-12)
Km: 3000 µM
